# Measured values as given in article PMC10508222, “Elucidation of the stereocontrol mechanisms of the chemical and biosynthetic intramolecular Diels–Alder cycloaddition for the formation of bioactive decalins” (RSC Advances, 2023).
# B1: Phm7 (Pyrenochaetopsis sp.) (protein)
# chain: MSEPTSSSSLDITSNCIIETPLQPSDFLPKSANLFPKFPERISVDSWELWEFDTFDTNGSVAFGCSLYRDARGVEQGGFHAEVNALWPDGTHWGETLYFAVSEVVENSDGTTGGKWLSKDGGSITFHIASDYTAAALDFNVPGKVSGTMELRNHANVSPTSNLPASDAEAQLCPGVYYTFPMGPVATSVTATFSSVGANGESRELFISSGYGGMVRGWSARPWPTFMNDAYYVVAQVGPYMLQILRTLGSVFVQHKPFAVARLYLDGSLVSAANTVVGDELTAHADDVKGDAVRLTKVQPDEKSQGLSGKFRDGNVGYVLEFAKKDSEHGWTFQISHKRAVWSEPTSAPGPDGTGKSGWIEAISGGAKGENYEGHGFGGQLQIPVP
# Columns and labels:
# Assay in all cases: purified protein, by the assay type
# Details in all cases: pH 7.5; 25.0 °C
# [1] = test system: C/C=C/C=C/C=C/C[C@H](C)CC/C=C(\C)C(O)=C1C(=O)C(CO)N(C)C1=O
# [2] = test system: C/C=C/C=C/C=C/C[C@@H](C)CC/C=C(\C)C(O)=C1C(=O)C(CO)N(C)C1=O
# [3] = substrate: C/C=C/C=C/C=C/C[C@@H](C)CC/C=C(\C)C(O)=C1C(=O)C(CO)N(C)C1=O; remark: listed apart in the source
Molecule,Km [1] [µM],kcat [1] [s⁻¹],kcat/Km [1] [M⁻¹ s⁻¹],Km [2] [µM],kcat [2] [s⁻¹],kcat/Km [2] [M⁻¹ s⁻¹],Km [3] [µM],kcat [3] [s⁻¹],kcat/Km [3] [M⁻¹ s⁻¹]
Fsa2 (Fusarium sp. FN080326),18.07 ± 4.21,84.2 ± 6.58,4.67e+06,25.07 ± 2.98,1.01 ± 0.048,40200,,,
B1,,,,,,,38.21 ± 8.23,1.98,51800
